Experiment [1] deals with T1, Drosophila melanogaster Toll (Toll1) ectodomain (Drosophila melanogaster, UniProt P08953 28-807).
T1 construct: Toll receptor 1, Drosophila melanogaster, purified ectodomain; also called DmToll1; DmToll
T1 sequence (looked up): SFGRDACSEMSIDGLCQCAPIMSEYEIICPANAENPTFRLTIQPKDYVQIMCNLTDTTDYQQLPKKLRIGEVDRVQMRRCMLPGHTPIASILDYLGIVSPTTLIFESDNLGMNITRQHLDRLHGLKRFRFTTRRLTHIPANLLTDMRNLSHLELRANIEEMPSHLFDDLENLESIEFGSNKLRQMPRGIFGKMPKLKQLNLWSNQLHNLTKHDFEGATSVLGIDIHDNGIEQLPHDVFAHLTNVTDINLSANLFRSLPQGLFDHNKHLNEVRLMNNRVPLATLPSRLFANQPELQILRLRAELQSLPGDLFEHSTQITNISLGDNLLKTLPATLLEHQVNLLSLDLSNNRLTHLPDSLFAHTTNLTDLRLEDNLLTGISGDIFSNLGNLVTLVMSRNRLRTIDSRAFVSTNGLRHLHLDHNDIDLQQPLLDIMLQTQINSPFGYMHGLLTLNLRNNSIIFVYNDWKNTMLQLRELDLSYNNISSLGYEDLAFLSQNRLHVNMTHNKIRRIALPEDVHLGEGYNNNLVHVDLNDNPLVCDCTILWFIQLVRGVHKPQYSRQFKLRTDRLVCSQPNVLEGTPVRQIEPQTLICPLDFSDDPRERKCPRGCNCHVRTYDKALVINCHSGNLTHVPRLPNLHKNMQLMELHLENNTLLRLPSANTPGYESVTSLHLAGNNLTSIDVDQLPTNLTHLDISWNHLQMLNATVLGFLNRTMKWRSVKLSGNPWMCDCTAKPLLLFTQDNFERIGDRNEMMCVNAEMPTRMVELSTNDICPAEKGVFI
Briefly: SPR; Biacore T200, CM5 chip; Spz1A, Spz1C and DmSpz proproteins and cys-knot ligands immobilised by amine coupling at pH 4.5; Toll ectodomains injected at 0.1-7.5 μM; 100 mM NaCl, 20 mM HEPES pH 7; 30 μl/min; two-state reaction model. As to conditions: both partners purified. In general terms: In SPR one partner is held on a chip, and binding of the other changes the refractive index at the surface.

Experiment [2] has as its target T2, Aedes aegypti Spaetzle1C cystine-knot domain (residues 219-320), disulphide-linked dimer (Aedes aegypti, intermolecular disulphide bonds between Cys-94 and between Cys-59 of the two chains).
T2 chain: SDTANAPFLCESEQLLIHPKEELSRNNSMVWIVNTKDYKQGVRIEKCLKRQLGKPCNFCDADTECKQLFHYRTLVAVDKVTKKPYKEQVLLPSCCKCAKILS
Briefly: SPR; heterogeneous ligand fit, site 1.

For experiment [3], the target named is Aedes aegypti Spaetzle1C cystine-knot domain (residues 219-320), disulphide-linked dimer (Aedes aegypti). Briefly: mass photometry; 25 nM Toll5A with 25 nM Spz1C; PBS pH 7.4; Refeyn OneMP.
The target of experiment [4] is T2, Aedes aegypti Spaetzle1C cystine-knot …. In words: SPR; heterogeneous ligand fit, second site.
Experiment [5] deals with Aedes aegypti Spaetzle1C cystine-knot domain (residues 219-320), disulphide-linked dimer (Aedes aegypti). In words: mass photometry; 50 nM Toll5A with 50 nM Spz1C; PBS pH 7.4; Refeyn OneMP.
Experiment [6] deals with Aedes aegypti Toll5A ectodomain (residues 1-789) (Aedes aegypti). In words: AUC; sedimentation velocity, Toll5A ectodomain alone at ≥ 30 μM; 50,000 rpm, 20 °C; dimer to monomers.
The target of experiment [7] is Aedes aegypti Spaetzle1C cystine-knot domain (residues 219-320), disulphide-linked dimer (Aedes aegypti). Briefly: SEC-MALS; 50 μM Toll5A alone or saturated with Spz1C loaded on Superose 6; 50 mM Tris-HCl pH 7.5, 50 mM NaCl. On the technique in general: In gel filtration, larger molecules generally elute earlier.
Experiment [8] addresses Aedes aegypti Toll5A ectodomain (residues 1-789) (Aedes aegypti). The description is as above.
Experiment [9] has as its target Aedes aegypti Spaetzle1C cystine-knot domain (residues 219-320), disulphide-linked dimer (Aedes aegypti). In words: AUC; sedimentation velocity, Toll5A with Spz1C at equimolar concentration or in excess; 50,000 rpm, 20 °C.
Experiment [10] has the same target. Briefly: SPR; Biacore T200, CM5 chip; Spz1A, Spz1C and DmSpz proproteins and cys-knot ligands immobilised by amine coupling at pH 4.5; Toll ectodomains injected at 0.1-7.5 μM; 100 mM NaCl, 20 mM HEPES pH 7; 30 μl/min; two-state reaction model.

“And” between values parts separate entries of the source, which are not always exact repeats. Identical values can stand only once.

B1: Drosophila melanogaster Spaetzle (Spz1) (ligand)
chain: VGGSDERFLCRSIRKLVYPKKGLRADDTWQLIVNNDEYKQAIQIEECEGADQPCDFAANFPQSYNPICKQHYTQQTLASIKSDGELDVVQNSFKIPSCCKCALKTG
modifications: disulfide-linked dimer of the processed cys-knot form (C-106; limits from the UniProt chain feature, not given); the proprotein (26-326) was also immobilised
Broadly, the Kd is a measure of binding affinity in units of concentration. Take B1: the Kd in [1] was in the range of 0.03 to 0.08 µM.

B2: Aedes aegypti Toll5A ectodomain (residues 1-789) (receptor)
chain: TSTKRFTCPEESEASNCSCEEFPSKTHFYCPDFNPTLYVDVEDRMRVDFKCYDEPHDFKSLPNLAIGSVKLLTVVDCVLDDDRPILESFKFLEVADVRSFVYNNHENGIRYNAKYFEGMEQLENLTLARGVVSIDRDTFSGFLNLKRLTIEHNKLNLQPGTFEALSNLTYLGLVYNGLNEIQPGLFDGLESLEALSLSYNDIKSLSAGSFNGLSSLRMLNLRVNKIESFDANTFASLKELSRLEITLNPFVSLPRGLFSENKKLKTLILTNNRKLVTLPEELLANLKELTVVNLSHNGVGNLPESLLSGSSGIIELNLGYNRLNSLPEELLSDQPQLQVLNLDHNQLESIPDYFLERNVELQTLYLSHNRLRSLSEKAFTKLKNLKELHLENNQLQTIPQFLFSGTPKLEEIYMQNNQLALHANSFINEELSIADNDNTPFQVLQKLRILHLRNNSISTIFQDWYINNLEMQSLDLSFNKLPGLSYTQLQFQSNITLNLSNNEISQVLLIDDLDLQPYQRINVDLNHNPLNCNCNALKFIQLIQSKAEHGLQFNVDQLRCSEPPNLLDATMDQLQTKDLLCDFESADDCPKDCQCAMRLLDHTVIVNCSGRGLTEFPDLPIPSQLHEDFNALEVHVENNRLTKLPNLTKHNEITQLYARNNSIQNLLPHNIPSKLRIIDLSQNLLKMIDDSTLAQINRSSHLETIRLSQNQWLCDCPASSFLIFVQQNSRLISDMSAIRCHPSGKSLDSITVNELCFEDYTTENLYFQ
modifications: Asn-linked glycans visible at positions 151, 194, 481, 521, 634 and 687
As usually defined, the koff is the first-order rate constant of dissociation. Low values mean slow dissociation, high ones fast dissociation. Usually stoichiometry N stands for the number of molecules, sites or subunits per partner or assembly. Regarding B2, the koff turned out to be 0.0324 s⁻¹ in experiment [2] and 0.00532 s⁻¹ in experiment [4]. The stoichiometry N (Toll5A per Spz1C dimer) was 2 in [3]; 2 in [7]; 1 and 2 in [9]. Besides, in experiment [5], the stoichiometry N (Toll5A per Spz1C dimer (1:1 complex)) came out at 1. In experiment [5], the stoichiometry N (Toll5A per Spz1C dimer (2:1 complex)) was 2. This molecule also had a stoichiometry N (Toll5A per Spz1C dimer (2:2 complex)) in [5] of 1. Moreover, the stoichiometry N in experiment [6] and in [8] was 2 each time. In experiment [10], the Kd came out at 2 µM.
